Patent US20150005230A1, “CYCLODEXTRIN-BASED POLYMERS FOR THERAPEUTIC DELIVERY” (priority 2012, published 2015)

Molecular target: human albumin (Homo sapiens, UniProt P02768)
Assay: Release of CPT in reconstituted human albumin (PBS solution)
Format: in vitro ADME
Conditions: in the presence of albumin
Protocol: Samples were stored at −80° C. until the analysis.

Sequence of human albumin (P02768 25-609): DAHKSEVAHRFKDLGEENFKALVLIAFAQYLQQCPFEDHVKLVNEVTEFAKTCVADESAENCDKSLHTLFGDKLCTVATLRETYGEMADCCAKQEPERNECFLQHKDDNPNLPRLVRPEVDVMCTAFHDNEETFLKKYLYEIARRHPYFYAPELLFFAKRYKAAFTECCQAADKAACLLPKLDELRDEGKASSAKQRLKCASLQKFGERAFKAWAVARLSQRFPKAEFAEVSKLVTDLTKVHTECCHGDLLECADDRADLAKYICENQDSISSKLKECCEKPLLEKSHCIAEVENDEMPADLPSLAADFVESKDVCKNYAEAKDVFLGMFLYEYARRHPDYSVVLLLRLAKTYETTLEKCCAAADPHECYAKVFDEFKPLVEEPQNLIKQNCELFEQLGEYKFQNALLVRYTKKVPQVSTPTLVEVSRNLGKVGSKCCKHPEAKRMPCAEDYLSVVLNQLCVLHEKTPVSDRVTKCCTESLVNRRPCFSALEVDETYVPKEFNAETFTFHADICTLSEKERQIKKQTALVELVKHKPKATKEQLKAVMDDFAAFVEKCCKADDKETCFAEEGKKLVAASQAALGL

Substance	CPT release rate compared with PBS
Poly(CDDCys-PA-PEG)-Gly-CPT [HG6]	on the same order of magnitude as in PBS
Poly(CDDCys-PA-PEG)-GlyGlyGly-CPT [HGGG6]	on the same order of magnitude as in PBS
